Data taken from patent US20240216432A1 (HEMOGENYX PHARMACEUTICALS, published 2024).
“And” between values parts separate entries of the source, which are not always exact repeats. Equal entries are not always repeated. Each block holds one binder with its values, some of them ahead of it.

How the values were obtained:
[1] = biological target: T1, FLT3 (Fms Related Receptor Tyrosine Kinase 3) (human, UniProt P36888 27-993); assay: flow cytometry on REH cells, anti-human IgG Fc Alexa Fluor 488 detection, with or without 10 nM FLT3L pre-incubation
T1 construct: whole, on cells; The target is endogenous FLT3 on human leukemia cell lines; also called human FLT3; FLK2
Source text: Cells were then stained with various concentrations of the chimeric monoclonal antibody prepared in flow buffer. Cells were washed five times with flow buffer and stained with anti-human IgG Fc antibody conjugated to Alexa Fluor 488 (Jackson Immunoresearch Laboratories, 109-545-008). Cells were stained with 7-AAD (7-AAD Viability Staining Solution, Biolegend 420404) followed by flow cytometry analysis.

[2] = biological target: T1, FLT3 (Fms Related Receptor Tyrosine …); assay: flow cytometry on REH cells, median fluorescence intensity against concentration, four-parameter fit, goat anti-human Fc FITC detection
Protocol: (§1) REH cells were incubated with varying concentrations (10⁻¹ to 10⁴ ng/mL) of the IgG1 or scFv molecules diluted in FACS buffer (hereinafter referred to simply as “buffer,” phosphate buffered saline (PBS) (Caisson Labs, no. PBL06)+2% BCS (GE Healthcare, no. SH30073.04)+1 mM EDTA (Invitrogen, no. 15575020)) in a final volume of 100 μL, in triplicate, for 30 minutes at 4° C. Cells were washed three times with buffer and incubated with secondary antibodies. IgG1 was detected with 1:200 goat anti-human Fc FITC (Jackson) secondary antibody and scFv was detected with anti-His FITC (1:200) secondary antibody. Secondary antibodies were incubated in 100 μL final volume in triplicate for 30 minutes at 4° C. Cells were washed once with buffer and resuspended in 200 uL buffer+1:100 7-AAD Viability Staining Solution (Biolegend, no. 420404), and analyzed by flow cytometry. Flow cytometry acquisition was performed with a Beckman Coulter CytoFLEX (Beckman Coulter), and analysis was performed with FlowJo (Treestar Inc, Ashland, OR). Plots show median fluorescence intensity of REH cells versus concentration of the primary antibody used. Variable slope (four parameters) curve was fit to the data and EC50 was used to compare binding affinities.

[3] = biological target: T1, FLT3 (Fms Related Receptor Tyrosine …); assay: flow cytometry on REH cells, median fluorescence intensity against concentration, four-parameter fit, anti-His FITC detection
Protocol: as §1

binding result [1]: binds
B1: chimeric antibody 1-18BA (mouse VL and mouse VH, human IgG) (antibody, V domains shown)
VH: QVTLKESGPGILQPSQTLSLTCSFSGFSLSTSTMGVGWIRQPSGKGLEWLLHILWNDSKYYNPALKSRLTISKDTYNKQVFLKIANVDTADTATYYCARIVYYSTYVGYFDVWGAGTTVTVSS
VL: DIQMTQSPSSLSASLGERVSLTCRASQEISGYLSWLQQKPDGTIKRLIYAASTLHSGVPKRFSGSRSGSDYSLTISRLESEDVADYYCLQYASYPFTFGSGTKLEIK
notes: these appear to be the numbers of US 20190389955; also called chimeric anti-FLT3 antibody; cAb1977-10.0

EC50 [2]: 0.0621 µg/mL and 0.41 nM
B2: fully humanized anti-human FLT3 monoclonal IgG1, clone hum 1-18BA-v1 (antibody, V domains shown)
VH: QVTLKESGPTLVKPTQTLTLTCTFSGFSLSTSTMGVGWIRQPPGKALEWLAHILWNDSKRYNPSLKSRLTITKDTSKKQVVLTMTNMDPVDTATYYCARIVYYSTYVGYFDVWGQGTTVTVSS
VL: DIQMTQSPSSLSASVGDRVTITCRASQEISGYLSWLQQKPGKAIKRLIYAASTLQSGVPSRFSGSRSGSDYTLTISSLQPEDFATYYCLQYASYPFTFGQGTKLEIK
notes: also called humanized anti-FLT3 IgG; IgG1 molecule

EC50 [3]: 0.0854 µg/mL and 3.42 nM
B3: his-tagged scFv, clone hum 1-18BA-v1 (SEQ ID NO: 4 with a His tag on the C terminus) (scFv)
scFv: DIQMTQSPSSLSASVGDRVTITCRASQEISGYLSWLQQKPGKAIKRLIYAASTLQSGVPSRFSGSRSGSDYTLTISSLQPEDFATYYCLQYASYPFTFGQGTKLEIKGGGGSGGGGSGGGSGGGGSQVTLKESGPTLVKPTQTLTLTCTFSGFSLSTSTMGVGWIRQPPGKALEWLAHILWNDSKRYNPSLKSRLTITKDTSKKQVVLTMTNMDPVDTATYYCARIVYYSTYVGYFDVWGQGTTVTVSS
notes: also called humanized anti-FLT3 scFv; scFv molecule; not shown: C-terminal His tag
